Data published in publication PMC5501724, “Structural Basis for Specific Interaction of TGFβ Signaling Regulators SARA/Endofin with HD-PTP” (Structure(London, England:1993), 2017).
Ends that are not written are not given here.

Columns and labels:
[1] = target: T1, HD-PTPBro1 (Bro1 domain of HD-PTP, 1-361) (Homo sapiens, UniProt Q9H3S7); experiment: Biosensor (SPR) binding of peptides to HD-PTPBro1; conditions: 10 mM HEPES pH 7.4, 150 mM NaCl, 0.05% Tween 20, 25°C; for Binding to HD-PTPBro1 (sensogram): compared with wild-type endofin peptide, result in words
T1 construct: HD-PTPBro1 (1-361) was cloned in a pNIC28-Bsa4 vector; made in house; host or cells: E. coli BL21 (DE3)
T1 sequence (Q9H3S7 1-361): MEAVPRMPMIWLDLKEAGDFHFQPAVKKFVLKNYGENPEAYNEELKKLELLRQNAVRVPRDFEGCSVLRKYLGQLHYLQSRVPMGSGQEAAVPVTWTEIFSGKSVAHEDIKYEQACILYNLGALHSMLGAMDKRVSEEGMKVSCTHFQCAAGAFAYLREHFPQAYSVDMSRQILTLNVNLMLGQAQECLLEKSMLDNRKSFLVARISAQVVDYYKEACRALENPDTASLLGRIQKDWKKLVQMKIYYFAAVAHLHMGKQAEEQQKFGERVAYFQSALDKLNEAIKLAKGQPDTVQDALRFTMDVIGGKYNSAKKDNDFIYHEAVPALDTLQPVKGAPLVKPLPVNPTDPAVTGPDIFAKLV
Experimental: (§1) Biosensor based binding experiments were performed using a ProteOn XPR36 surface Plasmon resonance instrument (Bio-Rad Laboratories). The ProteOn XPR36 is multiplex system that can be used to provide simultaneous flow of up to six analyte channels (A1-A6) over up to six ligand channels (L1-L6). The running buffer used was 10 mM HEPES pH 7.4, 150 mM NaCl, 0.05% Tween 20. Immobilization of His6-tagged HD-PTP and a negative control protein, His6-tagged MptpB, was performed on a HTE chip (Bio-Rad Laboratories) in the vertical orientation. Proteins were diluted in running buffer to a final concentration of 50-100 μg/ml and 150 μl was injected at a flow rate of 30 μl/min The immobilization level of proteins was typically 5000-8000 response unit (RU). All experiments were performed at 25°C. Synthetic peptides spanning the binding regions of CHMP4 A, B and C, and SARA and endofin, were obtained from Generon Ltd, UK. For equilibrium binding measurements these peptides were used as analytes. Peptide stocks were prepared in running buffer just prior the binding experiments. Peptides were injected (50 μl at 100 μl/min) in the horizontal orientation using five serially diluted peptide concentrations (channels A1-A5) alongside a buffer control (channel A6). Peptide concentrations were chosen to give a suitable spread of responses below and above half-maximal binding.
(§2) All the binding sensograms were collected, processed and analyzed using the integrated ProteOn Manager software (Bio-Rad Laboratories), using the equilibrium binding mode: Response = [A] ^∗ Rmax/([A] + KD), where [A] is the analyte concentration and Rmax is the maximum response. At least 3 independent replicates were performed for each experiment. Values in the text and figure legends indicate mean +/- SD (standard deviation).

HD-PTPBro1-CC (1-714) = target: T2, HD-PTPBro1-CC (1-714) (Homo sapiens, UniProt Q9H3S7); experiment: Biosensor (SPR) binding of peptides to HD-PTPBro1-CC; conditions: 10 mM HEPES pH 7.4, 150 mM NaCl, 0.05% Tween 20, 25°C; for Binding to HD-PTPBro1-CC (sensogram): compared with wild-type endofin peptide, result in words
T2 construct: HD-PTPBro1-CC (1-714) and AlixBro1 (1-359) were cloned in a pET28a vector; made in house; host or cells: E. coli BL21 (DE3)
T2 sequence (Q9H3S7 1-714): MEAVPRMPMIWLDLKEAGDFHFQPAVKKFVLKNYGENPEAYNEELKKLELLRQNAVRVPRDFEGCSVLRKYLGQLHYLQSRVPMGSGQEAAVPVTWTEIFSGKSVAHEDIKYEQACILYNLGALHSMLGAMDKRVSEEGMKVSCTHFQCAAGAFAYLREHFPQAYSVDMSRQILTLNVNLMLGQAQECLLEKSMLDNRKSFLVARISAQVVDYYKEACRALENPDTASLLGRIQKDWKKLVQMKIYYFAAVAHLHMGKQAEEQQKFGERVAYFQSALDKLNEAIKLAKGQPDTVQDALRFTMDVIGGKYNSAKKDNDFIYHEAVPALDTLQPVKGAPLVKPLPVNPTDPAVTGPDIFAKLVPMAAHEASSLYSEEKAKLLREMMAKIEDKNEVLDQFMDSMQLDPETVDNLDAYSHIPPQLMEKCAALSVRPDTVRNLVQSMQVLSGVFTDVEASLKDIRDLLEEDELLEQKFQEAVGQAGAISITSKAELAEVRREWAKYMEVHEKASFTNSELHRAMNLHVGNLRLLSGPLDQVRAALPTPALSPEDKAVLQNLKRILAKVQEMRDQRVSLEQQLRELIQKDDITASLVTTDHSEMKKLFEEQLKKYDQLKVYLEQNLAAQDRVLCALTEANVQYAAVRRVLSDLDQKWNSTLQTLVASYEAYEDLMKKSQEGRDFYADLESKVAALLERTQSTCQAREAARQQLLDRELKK
Experimental: as §1, §2

[2] = target: T3, His6-HD-PTP_(Bro1-CC) (1-714), bacterially expressed (human, UniProt Q9H3S7 1-714); experiment: SPR; ProteOn XPR36; His6-tagged proteins immobilised on a HTE chip (5000-8000 RU); synthetic peptides as analytes, five concentrations; 10 mM HEPES pH 7.4, 150 mM NaCl, 0.05% Tween 20; 25°C; equilibrium binding fit; conditions: both partners purified
T3 construct: HD-PTP/PTPN23, Bro1 and coiled-coil domains, residues 1-714; also called His-HD-PTP; source: E. coli BL21 (DE3), purified (Nickel-beads, MonoQ, Superdex 200); not shown: His6, N-terminal, kept
T3 sequence (looked up): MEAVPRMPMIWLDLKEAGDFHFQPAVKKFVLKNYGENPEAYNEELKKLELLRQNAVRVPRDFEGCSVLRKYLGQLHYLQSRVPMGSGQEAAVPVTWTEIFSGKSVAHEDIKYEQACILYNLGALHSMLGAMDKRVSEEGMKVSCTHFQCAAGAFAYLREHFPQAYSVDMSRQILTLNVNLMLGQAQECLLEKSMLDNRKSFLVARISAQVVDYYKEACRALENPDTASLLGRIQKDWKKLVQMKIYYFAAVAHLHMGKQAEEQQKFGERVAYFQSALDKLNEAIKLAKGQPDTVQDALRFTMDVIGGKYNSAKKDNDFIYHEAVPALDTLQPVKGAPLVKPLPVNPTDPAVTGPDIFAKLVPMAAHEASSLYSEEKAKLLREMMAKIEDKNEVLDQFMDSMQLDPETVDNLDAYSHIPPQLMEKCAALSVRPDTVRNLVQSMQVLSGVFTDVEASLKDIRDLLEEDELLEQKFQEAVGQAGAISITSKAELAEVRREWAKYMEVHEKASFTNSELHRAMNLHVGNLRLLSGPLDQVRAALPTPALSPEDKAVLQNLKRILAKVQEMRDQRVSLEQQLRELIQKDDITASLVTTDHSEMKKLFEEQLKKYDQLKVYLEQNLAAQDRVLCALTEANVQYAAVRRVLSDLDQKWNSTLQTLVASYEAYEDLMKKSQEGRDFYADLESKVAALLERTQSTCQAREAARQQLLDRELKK

[3] = target: T4, His6-HD-PTP_(Bro1) (1-361) (human, UniProt Q9H3S7 1-361); experiment: as above; conditions: both partners purified
T4 construct: HD-PTP/PTPN23, Bro1 domain, residues 1-361; Immobilised by its His6 tag on the HTE chip; also called HD-PTP Bro1 domain; source: E. coli BL21 (DE3), purified (Nickel-beads, MonoQ, Superdex 200); not shown: His6, N-terminal, kept
T4 sequence (looked up): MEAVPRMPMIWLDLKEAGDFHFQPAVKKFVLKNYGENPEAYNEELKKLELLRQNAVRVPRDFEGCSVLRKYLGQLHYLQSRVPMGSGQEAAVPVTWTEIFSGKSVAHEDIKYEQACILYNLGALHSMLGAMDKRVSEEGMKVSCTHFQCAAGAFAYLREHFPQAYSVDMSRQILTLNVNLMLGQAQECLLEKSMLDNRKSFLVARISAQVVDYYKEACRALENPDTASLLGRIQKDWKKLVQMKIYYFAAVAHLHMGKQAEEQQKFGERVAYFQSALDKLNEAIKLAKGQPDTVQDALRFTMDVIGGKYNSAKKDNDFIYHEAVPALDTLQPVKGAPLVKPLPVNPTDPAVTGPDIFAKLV

[4] = listed as endofin L15 to proline
[5] = listed as endofin peptide containing the L15P mutation

Molecule: endofin1–22(L15P): endofin 22-mer peptide containing the L15P mutation (MDSYFKAAVSDLDKPLDDFEQN)
- Binding to HD-PTPBro1 (sensogram) [1, 4]: abolishes binding
- Binding to HD-PTPBro1 (sensogram) [1, 5]: did not bind
- Binding to HD-PTPBro1-CC (sensogram) (HD-PTPBro1-CC (1-714); [4]): abolishes binding
- Binding to HD-PTPBro1-CC (sensogram) (HD-PTPBro1-CC (1-714); [5]): did not bind

Molecule: KAAVSDLDKLLDDFEQN
- Binding to HD-PTPBro1 (sensogram) [1]: poor binding
- Kd ([1]; poor binding, read-out: Binding (affinity bound) to HD-PTPBro1): > 1500 µM
- Binding to HD-PTPBro1-CC (sensogram) (HD-PTPBro1-CC (1-714)): poor binding
- Kd (HD-PTPBro1-CC (1-714); poor binding, read-out: Binding (affinity bound) to HD-PTPBro1-CC): > 1500 µM

B1: endofin 22-mer peptide (first 22 residues of endofin) (peptide, UniProt Q7Z3T8 1-22, looked up)
peptide: MDSYFKAAVSDLDKLLDDFEQN
notes: human endofin, first 22 residues; begins 1-MDSYF-5; also called endofin peptide; endofin_(1-22) (WT); source: synthetic peptide (Generon Ltd, UK)
- Kd [2]: 2.7 µM
- Kd [3]: 3.1 µM

B2: SARA 22-mer peptide (N-terminal 22 residues of SARA) (peptide, UniProt O95405 1-22, looked up)
peptide: MENYFQAEAYNLDKVLDEFEQN
notes: human SARA, N-terminal 22 residues; also called SARA peptide; equivalent region of SARA; source: synthetic peptide (Generon Ltd, UK)
- Kd [3]: 11.3 µM

Molecule: PKVDEDEEALKQLAEWVS [CHMP4A C-terminal peptide]
- Kd [3]: 132 µM
